Test results published in patent US20060172374.
Where “and” joins values, the source holds several entries; their conditions need not be identical. Identical values can stand only once.

Key:
bovine S100B (Sigma) = bovine S100B (Sigma) (UniProt P02638)
Sequence of bovine S100B (Sigma) (P02638 2-92): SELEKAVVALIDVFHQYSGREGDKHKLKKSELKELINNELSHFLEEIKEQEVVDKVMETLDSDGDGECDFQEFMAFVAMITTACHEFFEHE

Sequence of GST-NDR2 (chain, as listed by the source): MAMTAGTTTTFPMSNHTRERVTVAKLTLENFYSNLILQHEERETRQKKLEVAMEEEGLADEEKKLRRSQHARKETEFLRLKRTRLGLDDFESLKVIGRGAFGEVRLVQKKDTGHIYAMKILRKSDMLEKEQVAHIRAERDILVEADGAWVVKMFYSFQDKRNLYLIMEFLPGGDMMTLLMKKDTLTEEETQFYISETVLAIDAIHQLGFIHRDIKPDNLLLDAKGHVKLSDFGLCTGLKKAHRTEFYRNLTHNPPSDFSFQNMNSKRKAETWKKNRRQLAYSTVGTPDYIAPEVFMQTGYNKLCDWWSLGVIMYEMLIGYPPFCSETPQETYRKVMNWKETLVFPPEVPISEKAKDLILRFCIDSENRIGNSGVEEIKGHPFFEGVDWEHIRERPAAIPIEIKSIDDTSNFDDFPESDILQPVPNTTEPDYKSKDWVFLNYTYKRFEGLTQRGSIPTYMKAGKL
Sequence of myc-tagged hMOB1 (chain, as listed by the source): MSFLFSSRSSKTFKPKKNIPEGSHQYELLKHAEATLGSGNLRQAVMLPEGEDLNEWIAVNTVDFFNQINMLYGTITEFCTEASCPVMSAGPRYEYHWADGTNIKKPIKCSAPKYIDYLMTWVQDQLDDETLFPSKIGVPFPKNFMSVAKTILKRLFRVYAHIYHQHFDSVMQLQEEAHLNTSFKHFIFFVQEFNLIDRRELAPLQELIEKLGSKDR

Substance	autophosphorylation, incorporated 32P (Cerenkov counting), +S100B (bovine S100B (Sigma))	specific activity, peptide kinase assay, after autophosphorylation +S100B (bovine S100B (Sigma))	also measured
GST-NDR1 T444A	0.241	3.97	–
GST-NDR1 S281A	0.028	0.952	–
HA-tagged NDR1 wild type	–	–	OA stimulated NDR kinase activity (peptide kinase assay of 12CA5 immunoprecipitates) (myc-tagged hMOB1): 2 fold and 3 fold; NDR autophosphorylation activity (32P, SDS PAGE, phosphoimager) (GST-hMOB1): Addition of GST-hMOB1 to HA-NDR kinase reactions stimulated NDR autophosphorylation activity
GST-NDR1 T74A	0.207	7.82	S100B-mediated increase of phosphorylation of Ser281 and Thr444 (immunoblot with phosphospecific antibodies) (bovine S100B (Sigma)): the T74A point mutation abolished the S100B-mediated increase of phosphorylation for both Ser281 and Thr444 residues without affecting the intrinsic NDR1 autophosphorylation
GST-NDR1 kinase dead (K118A)	0.0064	0.222	–
GST-NDR2	–	–	rate of NDR2 autophosphorylation (bovine S100B (Sigma)): increases the rate of NDR2 autophosphorylation by ˜2-fold after 4 hours of incubation; specific NDR activity (bovine S100B (Sigma)): stimulates the specific NDR activity in a concentration dependent manner up to ˜4-fold
GST-NDR1 wild type	0.351	21.3	increase in autophosphorylation (bovine S100B (Sigma)): an approximate 2-fold increase in autophosphorylation (on both Ser281 and Thr444); increase in kinase activity (bovine S100B (Sigma)): about a 5-fold increase in kinase activity; phosphorylation on Ser281 and Thr444 (immunoblot with phosphospecific antibodies) (bovine S100B (Sigma)): Ca2+/S100B was found to enhance phosphorylation on both Ser281 and Thr444
